B1: CCL17 (protein, UniProt Q92583 24-94, looked up)
C-C motif chemokine 17: ARGTNVGRECCLEYFKGAIPLRKLKTWYQTSEDCSRDAIVFVTVQGRAICSDPNNKRVKNAVKYLQSLERS
B2: SCARF1 (protein, UniProt Q14162 20-830, looked up)
Scavenger receptor class F …: SELDPKGQHVCVASSPSAELQCCAGWRQKDQECTIPICEGPDACQKDEVCVKPGLCRCKPGFFGAHCSSRCPGQYWGPDCRESCPCHPHGQCEPATGACQCQADRWGARCEFPCACGPHGRCDPATGVCHCEPGWWSSTCRRPCQCNTAAARCEQATGACVCKPGWWGRRCSFRCNCHGSPCEQDSGRCACRPGWWGPECQQQCECVRGRCSAASGECTCPPGFRGARCELPCPAGSHGVQCAHSCGRCKHNEPCSPDTGSCESCEPGWNGTQCQQPCLPGTFGESCEQQCPHCRHGEACEPDTGHCQRCDPGWLGPRCEDPCPTGTFGEDCGSTCPTCVQGSCDTVTGDCVCSAGYWGPSCNASCPAGFHGNNCSVPCECPEGLCHPVSGSCQPGSGSRDTALIAGSLVPLLLLFLGLACCACCCWAPRSDLKDRPARDGATVSRMKLQVWGTLTSLGSTLPCRSLSSHKLPWVTVSHHDPEVPFNHSFIEPPSAGWATDDSFSSDPESGEADEVPAYCVPPQEGMVPVAQAGSSEASLAAGAFPPPEDASTPFAIPRTSSLARAKRPSVSFAEGTKFAPQSRRSSGELSSPLRKPKRLSRGAQSGPEGREAEESTGPEEAEAPESFPAAASPGDSATGHRRPPLGGRTVAEHVEAIEGSVQESSGPVTTIYMLAGKPRGSEGPVRSVFRHFGSFQKGQAEAKVKRAIPKPPRQALNRKKGSPGLASGSVGQSPNSAPKAGLPGATGPMAVRPEEAVRGLGAGTESSRRAQEPVSGCGSPEQDPQKQAEEERQEEPEYENVVPISRPPEP
B3: DAB2 (protein, UniProt P98082 2-770, looked up)
Disabled homolog 2: SNEVETSATNGQPDQQAAPKAPSKKEKKKGPEKTDEYLLARFKGDGVKYKAKLIGIDDVPDARGDKMSQDSMMKLKGMAAAGRSQGQHKQRIWVNISLSGIKIIDEKTGVIEHEHPVNKISFIARDVTDNRAFGYVCGGEGQHQFFAIKTGQQAEPLVVDLKDLFQVIYNVKKKEEEKKKIEEASKAVENGSEALMILDDQTNKLKSGVDQMDLFGDMSTPPDLNSPTESKDILLVDLNSEIDTNQNSLRENPFLTNGITSCSLPRPTPQASFLPENAFSANLNFFPTPNPDPFRDDPFTQPDQSTPSSFDSLKSPDQKKENSSSSSTPLSNGPLNGDVDYFGQQFDQISNRTGKQEAQAGPWPFSSSQTQPAVRTQNGVSEREQNGFSVKSSPNPFVGSPPKGLSIQNGVKQDLESSVQSSPHDSIAIIPPPQSTKPGRGRRTAKSSANDLLASDIFAPPVSEPSGQASPTGQPTALQPNPLDLFKTSAPAPVGPLVGLGGVTVTLPQAGPWNTASLVFNQSPSMAPGAMMGGQPSGFSQPVIFGTSPAVSGWNQPSPFAASTPPPVPVVWGPSASVAPNAWSTTSPLGNPFQSNIFPAPAVSTQPPSMHSSLLVTPPQPPPRAGPPKDISSDAFTALDPLGDKEIKDVKEMFKDFQLRQPPAVPARKGEQTSSGTLSAFASYFNSKVGIPQENADHDDFDANQLLNKINEPPKPAPRQVSLPVTKSTDNAFENPFFKDSFGSSQASVASSQPVSSEMYRDPFGNPFA
B4: APBB1IP (protein, UniProt Q7Z5R6 1-666, looked up)
Amyloid beta A4 precursor …: MGESSEDIDQMFSTLLGEMDLLTQSLGVDTLPPPDPNPPRAEFNYSVGFKDLNESLNALEDQDLDALMADLVADISEAEQRTIQAQKESLQNQHHSASLQASIFSGAASLGYGTNVAATGISQYEDDLPPPPADPVLDLPLPPPPPEPLSQEEEEAQAKADKIKLALEKLKEAKVKKLVVKVHMNDNSTKSLMVDERQLARDVLDNLFEKTHCDCNVDWCLYEIYPELQIERFFEDHENVVEVLSDWTRDTENKILFLEKEEKYAVFKNPQNFYLDNRGKKESKETNEKMNAKNKESLLEESFCGTSIIVPELEGALYLKEDGKKSWKRRYFLLRASGIYYVPKGKTKTSRDLACFIQFENVNIYYGTQHKMKYKAPTDYCFVLKHPQIQKESQYIKYLCCDDTRTLNQWVMGIRIAKYGKTLYDNYQRAVAKAGLASRWTNLGTVNAAAPAQPSTGPKTGTTQPNGQIPQATHSVSAVLQEAQRHAETSKDKKPALGNHHDPAVPRAPHAPKSSLPPPPPVRRSSDTSGSPATPLKAKGTGGGGLPAPPDDFLPPPPPPPPLDDPELPPPPPDFMEPPPDFVPPPPPSYAGIAGSELPPPPPPPPAPAPAPVPDSARPPPAVAKRPPVPPKRQENPGHPGGAGGGEQDFMSDLMKALQKKRGNVS
B5: ARHGAP1 (protein, UniProt Q07960 1-439, looked up)
Rho GTPase-activating protein …: MDPLSELQDDLTLDDTSEALNQLKLASIDEKNWPSDEMPDFPKSDDSKSSSPELVTHLKWDDPYYDIARHQIVEVAGDDKYGRKIIVFSACRMPPSHQLDHSKLLGYLKHTLDQYVESDYTLLYLHHGLTSDNKPSLSWLRDAYREFDRKYKKNIKALYIVHPTMFIKTLLILFKPLISFKFGQKIFYVNYLSELSEHVKLEQLGIPRQVLKYDDFLKSTQKSPATAPKPMPPRPPLPNQQFGVSLQHLQEKNPEQEPIPIVLRETVAYLQAHALTTEGIFRRSANTQVVREVQQKYNMGLPVDFDQYNELHLPAVILKTFLRELPEPLLTFDLYPHVVGFLNIDESQRVPATLQVLQTLPEENYQVLRFLTAFLVQISAHSDQNKMTNTNLAVVFGPNLLWAKDAAITLKAINPINTFTKFLLDHQGELFPSPDPSGL
B6: hK14 (protein, UniProt Q9P0G3 41-267, looked up)
Kallikrein-14: IIGGHTCTRSSQPWQAALLAGPRRRFLCGGALLSGQWVITAAHCGRPILQVALGKHNLRRWEATQQVLRVVRQVTHPNYNSRTHDNDLMLLQLQQPARIGRAVRPIEVTQACASPGTSCRVSGWGTISSPIARYPASLQCVNINISPDEVCQKAYPRTITPGMVCAGVPQGGKDSCQGDSGGPLVCRGQLQGLVSWGMERCALPGYPGVYTNLCKYRSWIEETMRDK
B7: PEBP1 (protein, UniProt P30086 2-187, looked up)
Phosphatidylethanolamine-bindi …: PVDLSKWSGPLSLQEVDEQPQHPLHVTYAGAAVDELGKVLTPTQVKNRPTSISWDGLDSGKLYTLVLTDPDAPSRKDPKYREWHHFLVVNMKGNDISSGTVLSDYVGSGPPKGTGLHRYVWLVYEQDRPLKCDEPILSNRSGDHRGKFKVASFRKKYELRAPVAGTCYQAEWDDYVPKLYEQLSGK
B8: CLM-1 (protein, UniProt Q8TDQ1 20-290, looked up)
CMRF35-like molecule 1: TQITGPTTVNGLERGSLTVQCVYRSGWETYLKWWCRGAIWRDCKILVKTSGSEQEVKRDRVSIKDNQKNRTFTVTMEDLMKTDADTYWCGIEKTGNDLGVTVQVTIDPAPVTQEETSSSPTLTGHHLDNRHKLLKLSVLLPLIFTILLLLLVAASLLAWRMMKYQQKAAGMSPEQVLQPLEGDLCYADLTLQLAGTSPQKATTKLSSAQVDQVEVEYVTMASLPKEDISYASLTLGAEDQEPTYCNMGHLSSHLPGRGPEEPTEYSTISRP
B9: LYN (protein, UniProt P07948 2-512, looked up)
Tyrosine-protein kinase Lyn: GCIKSKGKDSLSDDGVDLKTQPVRNTERTIYVRDPTSNKQQRPVPESQLLPGQRFQTKDPEEQGDIVVALYPYDGIHPDDLSFKKGEKMKVLEEHGEWWKAKSLLTKKEGFIPSNYVAKLNTLETEEWFFKDITRKDAERQLLAPGNSAGAFLIRESETLKGSFSLSVRDFDPVHGDVIKHYKIRSLDNGGYYISPRITFPCISDMIKHYQKQADGLCRRLEKACISPKPQKPWDKDAWEIPRESIKLVKRLGAGQFGEVWMGYYNNSTKVAVKTLKPGTMSVQAFLEEANLMKTLQHDKLVRLYAVVTREEPIYIITEYMAKGSLLDFLKSDEGGKVLLPKLIDFSAQIAEGMAYIERKNYIHRDLRAANVLVSESLMCKIADFGLARVIEDNEYTAREGAKFPIKWTAPEAINFGCFTIKSDVWSFGILLYEIVTYGKIPYPGRTNADVMTALSQGYRMPRVENCPDELYDIMKMCWKEKAEERPTFDYLQSVLDDFYTATEGQYQQQP
B10: PDGF subunit B (protein, UniProt P01127 82-190, looked up)
Platelet-derived growth …: SLGSLTIAEPAMIAECKTRTEVFEISRRLIDRTNANFLVWPPCVEVQRCSGCCNNRNVQCRPTQVQLRPVQVRKIEIVRKKPIFKKATVTLEDHLACKCETVAAARPVT
B11: EPHB4 (protein, UniProt P54760 16-987, looked up)
Ephrin type-B receptor 4: LEETLLNTKLETADLKWVTFPQVDGQWEELSGLDEEQHSVRTYEVCDVQRAPGQAHWLRTGWVPRRGAVHVYATLRFTMLECLSLPRAGRSCKETFTVFYYESDADTATALTPAWMENPYIKVDTVAAEHLTRKRPGAEATGKVNVKTLRLGPLSKAGFYLAFQDQGACMALLSLHLFYKKCAQLTVNLTRFPETVPRELVVPVAGSCVVDAVPAPGPSPSLYCREDGQWAEQPVTGCSCAPGFEAAEGNTKCRACAQGTFKPLSGEGSCQPCPANSHSNTIGSAVCQCRVGYFRARTDPRGAPCTTPPSAPRSVVSRLNGSSLHLEWSAPLESGGREDLTYALRCRECRPGGSCAPCGGDLTFDPGPRDLVEPWVVVRGLRPDFTYTFEVTALNGVSSLATGPVPFEPVNVTTDREVPPAVSDIRVTRSSPSSLSLAWAVPRAPSGAVLDYEVKYHEKGAEGPSSVRFLKTSENRAELRGLKRGASYLVQVRARSEAGYGPFGQEHHSQTQLDESEGWREQLALIAGTAVVGVVLVLVVIVVAVLCLRKQSNGREAEYSDKHGQYLIGHGTKVYIDPFTYEDPNEAVREFAKEIDVSYVKIEEVIGAGEFGEVCRGRLKAPGKKESCVAIKTLKGGYTERQRREFLSEASIMGQFEHPNIIRLEGVVTNSMPVMILTEFMENGALDSFLRLNDGQFTVIQLVGMLRGIASGMRYLAEMSYVHRDLAARNILVNSNLVCKVSDFGLSRFLEENSSDPTYTSSLGGKIPIRWTAPEAIAFRKFTSASDAWSYGIVMWEVMSFGERPYWDMSNQDVINAIEQDYRLPPPPDCPTSLHQLMLDCWQKDRNARPRFPQVVSALDKMIRNPASLKIVARENGGASHPLLDQRQPHYSAFGSVGEWLRAIKMGRYEESFAAAGFGSFELVSQISAEDLLRIGVTLAGHQKKILASVQHMKSQAKPGTPGGTGGPAPQY

test system: plasma proteins; assay: Plasma proteins modulated between baseline and day 28 in responders (CR, VGPR, PR; n = 19), Example 6 (Table 13); type: in vivo, human; details: plasma protein (OLINK NPX); responders (CR, VGPR, PR; n = 19); itacitinib 200 mg or 300 mg QD with corticosteroids; day 28 vs baseline
Outline: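 Plasma at baseline/screening and day 28 profiled for >1000 proteins by OLINK proximity extension assay, reported as NPX (log2). Steroid-naive and steroid-refractory patients pooled. Paired and unpaired t tests, ANOVA and Pearson correlation applied; significance at P<0.05.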

Row | Molecule | Fold Change, Decreased Expression from Baseline to Day 28 | Fold Change, Increased Expression from Baseline to Day 28
1 | B1 | −3.059 | 
2 | B2 | −1.3509 | 
3 | B3 | −1.2548 | 
4 | B4 | −1.4021 | 
5 | B5 | −1.6039 | 
6 | B6 |  | 1.5574
7 | B7 | −1.307 | 
8 | B8 | −1.3921 | 
9 | B9 | −1.2337 | 
10 | B10 | −1.9124 | 
11 | B11 | −1.2339 | 
